The results in this text go back to paper PMC10851674 (Analytical chemistry, 2022).

The target in the test is T1, rat cytochrome P450 reductase (rat, UniProt P00388 1-678).
T1 sequence (looked up): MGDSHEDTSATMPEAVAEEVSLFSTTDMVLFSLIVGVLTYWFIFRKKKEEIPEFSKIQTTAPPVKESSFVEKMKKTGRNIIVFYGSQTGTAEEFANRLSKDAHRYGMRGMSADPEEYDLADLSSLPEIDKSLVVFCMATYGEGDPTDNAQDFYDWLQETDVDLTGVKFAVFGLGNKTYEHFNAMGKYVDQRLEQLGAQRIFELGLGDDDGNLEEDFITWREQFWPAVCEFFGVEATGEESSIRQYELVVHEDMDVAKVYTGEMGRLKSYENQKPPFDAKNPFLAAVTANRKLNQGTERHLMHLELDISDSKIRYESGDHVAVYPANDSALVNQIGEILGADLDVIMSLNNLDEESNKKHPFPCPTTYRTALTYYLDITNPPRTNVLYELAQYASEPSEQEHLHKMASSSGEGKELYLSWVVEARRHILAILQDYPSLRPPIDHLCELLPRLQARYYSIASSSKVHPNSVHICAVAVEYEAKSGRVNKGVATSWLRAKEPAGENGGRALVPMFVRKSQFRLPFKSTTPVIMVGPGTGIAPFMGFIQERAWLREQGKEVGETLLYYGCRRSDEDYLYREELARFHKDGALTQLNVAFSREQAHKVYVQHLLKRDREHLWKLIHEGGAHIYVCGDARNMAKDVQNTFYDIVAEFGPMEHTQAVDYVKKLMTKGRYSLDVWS
The test is described as follows: SEC. Background: In gel filtration, larger molecules generally elute earlier.

B1: rabbit cytochrome P450 2B4 (enzyme, UniProt P00178 1-491, looked up)
chain: MEFSLLLLLAFLAGLLLLLFRGHPKAHGRLPPGPSPLPVLGNLLQMDRKGLLRSFLRLREKYGDVFTVYLGSRPVVVLCGTDAIREALVDQAEAFSGRGKIAVVDPIFQGYGVIFANGERWRALRRFSLATMRDFGMGKRSVEERIQEEARCLVEELRKSKGALLDNTLLFHSITSNIICSIVFGKRFDYKDPVFLRLLDLFFQSFSLISSFSSQVFELFPGFLKHFPGTHRQIYRNLQEINTFIGQSVEKHRATLDPSNPRDFIDVYLLRMEKDKSDPSSEFHHQNLILTVLSLFFAGTETTSTTLRYGFLLMLKYPHVTERVQKEIEQVIGSHRPPALDDRAKMPYTDAVIHEIQRLGDLIPFGVPHTVTKDTQFRGYVIPKNTEVFPVLSSALHDPRYFETPNTFNPGHFLDANGALKRNEGFMPFSLGKRICLGEGIARTELFLFFTTILQNFSIASPVPPEDIDLTPRESGVGNVPPSYQIRFLAR
For B1, the binding result is recorded as “binds”.
